# T1: purified β2-chimaerin (UniProt P52757-1 1-468)
# T1 sequence: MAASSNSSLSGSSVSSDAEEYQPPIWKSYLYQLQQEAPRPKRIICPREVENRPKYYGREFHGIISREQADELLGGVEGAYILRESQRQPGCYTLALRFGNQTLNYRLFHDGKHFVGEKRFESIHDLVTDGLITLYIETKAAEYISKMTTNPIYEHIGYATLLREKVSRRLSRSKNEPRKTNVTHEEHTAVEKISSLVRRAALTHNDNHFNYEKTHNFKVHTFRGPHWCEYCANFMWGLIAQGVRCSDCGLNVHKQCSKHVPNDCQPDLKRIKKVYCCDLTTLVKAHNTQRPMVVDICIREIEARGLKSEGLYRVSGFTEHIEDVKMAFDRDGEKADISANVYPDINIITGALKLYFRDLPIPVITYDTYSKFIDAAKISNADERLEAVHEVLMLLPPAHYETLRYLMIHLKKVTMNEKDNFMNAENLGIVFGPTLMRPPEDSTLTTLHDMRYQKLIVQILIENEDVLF
# B1: Nck1 SH3-3 (purified third SH3 domain of Nck1) (domain or fragment)
# chain: QVLHVVQALYPFSSSNDEELNFEKGDVMDVIEKPENDPEWWKCRKINGMVGLVPKNYVTVMQN
# What was measured:
# GST-Nck1 SH3-3 = GST-Nck1 SH3-3 (UniProt P16333); test: SPR
# purified β2-chimaerin = target: T1, purified β2-chimaerin; test: co-sedimentation
Molecule,Kd (GST-Nck1 SH3-3) [µM],Kd (purified β2-chimaerin) [µM]
WT-β2-chim peptide (β2-chimaerin amino acids 34–59),18,
B1,,1.7
